Measurements: the RNAGym collection of RNA variant scans (doi:10.7554/elife.80360)

B1: CPEB3 Ribozyme (parent)
chain: GGGGGCCACAGCAGAAGCGUUCACGUCGCGGCCCCUGUCAGAUUCUGGUGAAUCUGCGAAUUCUGCUGU

Variants of: B1
Assay: self-cleavage, relative activity (ratio to wild type); higher = more cleavage; co-transcriptional

Row | Variant | self-cleavage
1 | GGGUGCCACAGCAAAAGCGUUCACGUCGCGGCCCCUGUCAGAUUCUGGUGAAUCUGCGAAUUCUGCUGU | 0.257
2 | GGGGACCACAGCAGAAGCGUUCACGUCGCGGGCCCUGUCAGAUUCUGGUGAAUCUGCGAAUUCUGCUGU | 0.847
3 | GGGGACCACAGCAGAAGCGUUCACGUCGCGGUCCCUGUCAGAUUCUGGUGAAUCUGCGAAUUCUGCUGU | 0.992
4 | GGGUGCCACAGCAGAAGCGUUCACGUCGCGGCCCCUGUCAGAUUCUGGUGAAUCUGCUAAUUCUGCUGU | 0.798
5 | GGGUGCCACAGCAGAAGCGUUCACGUCGCGGCGCCUGUCAGAUUCUGGUGAAUCUGCGAAUUCUGCUGU | 1
6 | GGGUGCCACAGCAGAAGCGUUCACGUCGCGGCCCCUGUCAGAUUCUGGUGAAUCUGCGAAUUCUGCUGG | 0.941
7 | GGGUGCCACAGCAGAAGCGUUCACGUCGCGGCCCCUGUCAGAUUCUGGUGAAUCUGCGAAUUCUGCUGC | 1.02
8 | GGGUGCCACAGCAGAAGCGUUCACGUCGCAGCCCCUGUCAGAUUCUGGUGAAUCUGCGAAUUCUGCUGU | 0.142
9 | GGGUGCCACAGCAGAAGCGUUCACGUCGCGGCCCCUGUCAGAUACUGGUGAAUCUGCGAAUUCUGCUGU | 0.532
10 | GGGGACCACAGCAGAAGCGUUCACGUCGCGGCCCCUGUCAGAUUCUGGUGAAUCUGCGAAUUCUGUUGU | 0.88
11 | GGGGACCAUAGCAGAAGCGUUCACGUCGCGGCCCCUGUCAGAUUCUGGUGAAUCUGCGAAUUCUGCUGU | 1.02
12 | GGGGACCAGAGCAGAAGCGUUCACGUCGCGGCCCCUGUCAGAUUCUGGUGAAUCUGCGAAUUCUGCUGU | 0.982
13 | GGGUGCCACAGCAGAAGCGUUCACGUCGCGGCCCCUGUCAGAUUCUGGUGAAUCUGCGAAUUUUGCUGU | 0.739
14 | GGGUGCCACAGCAGAAGCGUUCACGUCGCGGCCCCUGUCAGAUUCUGGUGAAUCUGCGAAUUAUGCUGU | 0.306
15 | GGGUGCCACAGCAGAAGCGUUCACGUCGCGGCCCCUGUCAGAUUCUGGUUAAUCUGCGAAUUCUGCUGU | 0.817
16 | GGGUGCCACAGCAGAAGCGUUCACGUCGCGGCCCCUGUCAGAUUCUGGUCAAUCUGCGAAUUCUGCUGU | 0.764
17 | GGGGACCACAGCAGAAGCGUUCACGUCGCGGCCCCUGUCAGAUUCUUGUGAAUCUGCGAAUUCUGCUGU | 0.932
18 | GGGUGCCACAGCAGAAGCGUUCACGUCGCGGCCCCUGGCAGAUUCUGGUGAAUCUGCGAAUUCUGCUGU | 0.114
19 | GGGUGCCACAGCAGAAGCGUUCACGUCGCGACCCCUGUCAGAUUCUGGUGAAUCUGCGAAUUCUGCUGU | 0.0947
20 | GGGUGCCACAGCAGAAGCGUUCACGUCGCGGCCCCUGUCAGAUUCUGGUGAAUCUGCGAAUUCUGCGGU | 0.921

Row | Variant | self-cleavage
21 | GGGGACCACAGCUGAAGCGUUCACGUCGCGGCCCCUGUCAGAUUCUGGUGAAUCUGCGAAUUCUGCUGU | 0.642
22 | GGGGACCACAGCGGAAGCGUUCACGUCGCGGCCCCUGUCAGAUUCUGGUGAAUCUGCGAAUUCUGCUGU | 0.88
23 | GGGGACCACAGCAGGAGCGUUCACGUCGCGGCCCCUGUCAGAUUCUGGUGAAUCUGCGAAUUCUGCUGU | 0.846
24 | GGGUGCCACAGCAGAAGCGUUCACGUCGCGGCCCCUGUCAGAUUCUGGUGAAUCUGAGAAUUCUGCUGU | 0.17
25 | GGGUGCCACAGCAGAAUCGUUCACGUCGCGGCCCCUGUCAGAUUCUGGUGAAUCUGCGAAUUCUGCUGU | 0.072
26 | GGGUGCCACAGCAGAACCGUUCACGUCGCGGCCCCUGUCAGAUUCUGGUGAAUCUGCGAAUUCUGCUGU | 0.112
27 | GGGUGCCACAGCAGAAGCGUUCACGUCUCGGCCCCUGUCAGAUUCUGGUGAAUCUGCGAAUUCUGCUGU | 0.0847
28 | GGGUGCCACAGCAGAAGCGUUCACGUCACGGCCCCUGUCAGAUUCUGGUGAAUCUGCGAAUUCUGCUGU | 0.0947
29 | GGGGAGCACAGCAGAAGCGUUCACGUCGCGGCCCCUGUCAGAUUCUGGUGAAUCUGCGAAUUCUGCUGU | 0.0495
30 | GGGGACCACAGCAGAAGCGUUCACGUCGCAGCCCCUGUCAGAUUCUGGUGAAUCUGCGAAUUCUGCUGU | 0.156
31 | GGGGACCACAGCAGAAGCGUUCACGUCGCCGCCCCUGUCAGAUUCUGGUGAAUCUGCGAAUUCUGCUGU | 0.156
32 | GGGGACCACAGCAGAAGCGUUCCCGUCGCGGCCCCUGUCAGAUUCUGGUGAAUCUGCGAAUUCUGCUGU | 0.766
33 | GGGGACCACAGCAGAAGCGUUCGCGUCGCGGCCCCUGUCAGAUUCUGGUGAAUCUGCGAAUUCUGCUGU | 0.806
34 | GGGUGCCACAGCAGAAGCGUUCACGUCGCGGCCCCUGUCAGAUUCUGGUGAAUCUGCGAAUACUGCUGU | 0.315
35 | GGGUGCCACAGCAGAAGCGUUCACGUCGCGGCCCCUUUCAGAUUCUGGUGAAUCUGCGAAUUCUGCUGU | 0.128
36 | GGGGACCACAGCAGAAGCGUUCACGUCGCGGCCCCUGUCUGAUUCUGGUGAAUCUGCGAAUUCUGCUGU | 0.719
37 | GGGUGCCACAGCAGAAGCGUUCACGUCGUGGCCCCUGUCAGAUUCUGGUGAAUCUGCGAAUUCUGCUGU | 0.192
38 | GGGUGCCACAGCAGAAGCGUUCACGACGCGGCCCCUGUCAGAUUCUGGUGAAUCUGCGAAUUCUGCUGU | 0.282
39 | GGGUGCCACAGCAGAAGCGUUCACGCCGCGGCCCCUGUCAGAUUCUGGUGAAUCUGCGAAUUCUGCUGU | 0.641
